From publication PMC7790435

Biological target: Thermotoga maritima CheA, full-length (Thermotoga maritima) (UniProt Q56310)
Assay: cross-linking + SEC-MALS

Thermotoga maritima CheA, full-length (from UniProt Q56310 1-671) (enzyme)
stoichiometry N: 2

B1: Thermotoga maritima CheW (natural protein)
chain: KEFEVLSFEIDEQALAFDVDNIEMVIEKSDITPVPKSRHFVEGVINLRGRIIPVVNLAKILGISFDEQKMKSIIVARTKDVEVGFLVDRVLGVLRITENQLDLTNVSDKFGKKSKGLVKTDGRLIIYLDIDKIIEEITV
stoichiometry N: 2
